{
  "source": "patent US20200129582A1",
  "about": "“NOVEL PEPTIDES AND PEPTIDOMIMETICS” (UNIVERSITY OF AUCKLAND, priority 2016, published 2020)",
  "key": {"Solubility in miliQ H2O": {"test": "Solubility in miliQ H2O", "type": "physicochemical", "procedure": "For cell scrape load—dye coupling assays of gap junctions, induced protein distribution changes and ATP release studies of hemichannel block, Connexin43 mimetic peptide (Peptide5, sequence VDCFLSRPTEKT (SEQ ID NO: 45)) (Auspep, Australia) was synthesized at purity >95% and dissolved in miliQ H2O at a stock concentration of 10 mM. For competition assays extracellular loop matching peptides were custom synthesised and dissolved in miliQ H2O at a stock concentration of 1 mM according to purity supplied by the manufacturer (Auspep, Australia). For Peptide5 sequence substitution studies, peptides were generated in the School of Chemical Sciences, University of Auckland. The peptides were prepared using Fmoc solid phase synthesis. Fmoc-Thr(tBu)-OH or Fmoc-Ala-OH pre-loaded to the HMPP linker and attached to in-house prepared aminomethyl PS resin 2.1 (using DIC in DMF). This was followed by alternating de-protection and coupling reactions using 5% piperazine containing 0.1 M 6-Cl-HOBt and HBTU and NMM respectively via automated Tribute Fmoc-SPPS. Resin cleavage using TFA afforded crude products, which underwent purification via semi-preparative RP-HPLC. Peptides were obtained in high purity (>95%) and with good yields (17%-46%). All alanine substituted analogues were miliQ H2O soluble (Table 5).\nPeptide5 interacting site on the Connexin43 protein was determined using a competition assay. […]"}, "[1]": {"target": "T1, coupled gap junction channels in hCMVEC cells (Homo sapiens, UniProt P17302)", "T1 construct": "A confluent monolayer of hCMVECs was pre-incubated in Peptide5; endogenous in cells; host or cells: hCMVEC", "type": "cell-based", "details": "hCMVEC, 100 μM, FIG. 5", "procedure": "(§1) The hCMVEC cells were plated in 1 μg/cm^2 collagen I (Gibco) 12-well plate at a density of 0.4×10^6 cells per well, and cultured overnight. A confluent monolayer of hCMVECs was pre-incubated in Peptide5 (5-100 μM) dissolved in culture medium for 2 hours or 24 hours. CBX at a concentration of 100 μM was used as a positive control. Cells were washed three times with phosphate buffered saline (PBS) without Ca^2+ or Mg^2+. The cells were then incubated in 0.05% Lucifer Yellow (LY) (Sigma), a fluorescent dye that is transferred through coupled gap junction channels (el-Fouly et al., 1987, Experimental cell research 168:422-430), +/−Peptide5 dissolved in PBS, and scrape-wounded with a size 10 carbon steel surgical blade (Swann-Morton, England). Following 5-minute incubation at 37° C. in 95% O2 and 5% CO2 without light, the 0.05% LY solution was removed. Cells were rinsed four times with PBS with Ca^2+ or Mg^2+, and then fixed in 4% paraformaldehyde (PFA) in PBS at pH 7.4 for 10 minutes at room temperature. Cells were then washed 3 times in PBS to remove PFA before fluorescent imaging. Fluorescent images were visualised using a Nikon TE2000E inverted fluorescent microscope (10× magnification, 0.3 numerical aperture), and captured using a Digital Sight CCD camera and Eclipse Net software (Nikon). Three images within each well from three independent experiments were taken for analysis and the total number of cells showing dye uptake from those that had been loaded were counted manually by masked observers.\nas §1, with “1987),” for “1987, Experimental cell research 168:422-430),”"}, "[2]": {"target": "T2, hemichannel-mediated ATP release from hCMVEC cells (Homo sapiens, UniProt P17302)", "T2 construct": "endogenous in cells; host or cells: hCMVEC (human cerebral microvascular endothelial cells)", "T2 sequence (P17302 2-382 limits assumed)": "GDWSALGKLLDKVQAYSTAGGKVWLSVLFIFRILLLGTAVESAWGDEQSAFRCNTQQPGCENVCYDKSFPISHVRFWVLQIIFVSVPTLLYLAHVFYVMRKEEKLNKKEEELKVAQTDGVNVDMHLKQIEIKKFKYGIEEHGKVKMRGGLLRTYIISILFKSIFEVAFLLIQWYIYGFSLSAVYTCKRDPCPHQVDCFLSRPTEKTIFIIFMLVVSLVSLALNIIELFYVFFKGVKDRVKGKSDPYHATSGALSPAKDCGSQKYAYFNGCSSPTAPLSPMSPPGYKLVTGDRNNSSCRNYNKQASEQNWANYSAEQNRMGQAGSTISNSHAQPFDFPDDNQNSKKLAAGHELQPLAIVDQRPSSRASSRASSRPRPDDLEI", "test": "In vitro ischemia injury ATP release assay (single alanine substituted and truncated peptides)", "type": "cell-based", "procedure": "The human cerebral endothelial cells (hCMVEC) were plated at a density of 0.025×10^6 cells per well in a collagen-coated 12-well plate (1 μg/cm^2) a day prior to the experiment. Cells were incubated in culture medium overnight. Hypoxic, acidic, ion-shifted Ringer injury solution that mimics ionic concentrations and acid-base shifts of the interstitial space in hypoxic-ischemic brains (Bondarenko and Chesler, 2001, […]) was used to trigger hemichannel opening. The injury solution contained (in mM): 38 NaCl, 13 NaHCO3, 3 Na-gluconate, 65 K-gluconate, 38 NMDG-Cl, 1 NaH2PO4, and 1.5 MgCl2. The injury solution was bubbled in 95% N2, 5% CO2 gas (20 L/min) for 5 minutes and pH adjusted to 6.6 before use. The standard ringer solution contained (in mM): 124 NaCl, 3 KCl, 26 NaHCO3, 26 NaHCO3, 1 NaH2PO4, 1.3 CaCl2, 1.5 MgCl2, and 10 Glucose, and pH adjusted to 7.4 before use (Bondarenko and Chesler, 2001). In the ischemia injury model, hCMVEC cells were incubated for 2 hours in 500 μL injury solution+/−Peptide5 (100 μM) (O'Carroll et al., 2008, Cell communication & adhesion 15:27-42; Danesh-Meyer et al., 2012, Brain: a journal of neurology 135:506-520; Davidson et al., 2012, Annals of neurology 71:121-132; Davidson et al., 2013, Experimental neurology 248:301-308; Davidson et al., 2014, PloS one 9:e96558; Davidson et al., 2015, J Cereb Blood Flow Metab), or +/−extracellular loop sequences (Table 5), or modified peptides (Table 2, 3) dissolved in injury solution (500 μL) with a final concentration of 100 μM. For negative control, hCMVEC cells were incubated only in 500 μL standard ringer solution for 2 hours. For positive control, hCMVEC cells were incubated only in 500 μL […] for 2 hours. All incubations were conducted at 37° C. in 95% O2 and 5% CO2. At the end of each experiment, samples were removed and immediately placed on ice. The concentration of ATP in the samples was determined using a Luciferin/luciferase bioluminescence reaction (ATP Determination Kit, Molecular Probes) and detected using a luminescence plate reader (VICTOR X, Perkin Elmer #2030-0010). Standard curves were generated in each experiment from an ATP standard (0 to 500 nM) to convert bioluminescence units to ATP concentration. […] The data is presented as mean±standard error relative to the injury or injury-reperfusion positive control. Statistically significant differences between samples were tested using one-way analysis of variance and Tukey's multiple comparisons test.\nPeptides listed in table 5 and 2 were assessed using the ischemia injury model in hCMVEC cells as described above, and the medium was collected for ATP release measurement.\nThe human cerebral endothelial cells (hCMVEC) were plated at a density of 0.025×10^6 cells per well in a collagen-coated 12-well plate (1 μg/cm^2) a day prior to the experiment. Cells were incubated in culture medium overnight. Hypoxic, acidic, ion-shifted Ringer injury solution that mimics ionic concentrations and acid-base shifts of the interstitial space in hypoxic-ischemic brains (Bondarenko and Chesler, 2001) was used to trigger hemichannel opening. The injury solution contained (in mM): 38 NaCl, 13 NaHCO3, 3 Na-gluconate, 65 K-gluconate, 38 NMDG-Cl, 1 NaH2PO4, and 1.5 MgCl2. The injury solution was bubbled in 95% N2, 5% CO2 gas (20 L/min) for 5 minutes and pH adjusted to 6.6 before use. The standard ringer solution contained (in mM): 124 NaCl, 3 KCl, 26 NaHCO3, 26 NaHCO3, 1 NaH2PO4, 1.3 CaCl2, 1.5 MgCl2, and 10 Glucose, and pH adjusted to 7.4 before use (Bondarenko and Chesler, 2001)."}, "[3]": {"target": "T3, Connexin43 plaques in ARPE-19 cells (Homo sapiens, UniProt P17302)", "T3 construct": "a cell line with high endogenous expression of connexin43; endogenous in cells; host or cells: ARPE-19", "T3 sequence (P17302 2-382 limits assumed)": "as above", "test": "Immunocytochemistry and quantification of Cx43 plaques", "type": "cell-based", "details": "2- or 6-hour treatment, Peptide5 50-500 μM, LaCl3 and CBX 500 μM", "procedure": "(§2) ARPE-19 cells were grown until confluent in 8-well glass chamber-slides (BD Falcon). Confluent monolayers of ARPE-19 cells were incubated at a final concentration of 50 to 500 μM Peptide5, 500 μM LaCl3 and 500 μM CBX in culture medium for 2 or 6 hours. Cells were fixed in 4% PFA (ProSciTech) at pH 7.4 for 10 min at room temperature, permeabilized with 0.05% Triton-X100 in PBS, and incubated in 10% normal goat serum to block non-specific labelling. Cells were rinsed three times with PBS containing 0.1 mM CaCl2 between each fixation, permeabilization, and blocking steps. Connexin43 polyclonal rabbit antibody (C6219, Sigma, 1:2000) was applied overnight, followed by a goat anti-rabbit Alexa Fluor® 568 secondary antibody (Invitrogen, 1:200) for 45 minutes. Nuclei were counterstained with DAPI (Invitrogen) at 10,000-fold dilution for 5 mins, and mounted with Citifluor™ mounting medium. Images were visualised and captured using an oil immersion lens (60× magnification, 1.35 numerical aperture) on an Olympus FV1000 upright confocal laser scanning microscope and Olympus FV10-ASW 4.0 software. The Transfluor feature in MetaXpress® Image acquisition and analysis software (Version 5.3.0.1, Molecular Devices) was used to quantify the total area of Connexin43 plaques per image.\nas §2"}},
  "note": "Residues, ends and D or L forms follow the SMILES beside them.",
  "data": [
    {"molecule": "CC[C@H](C)[C@H](NC(=O)[C@H](Cc1ccc(O)cc1)NC(=O)[C@H](Cc1c[nH]c2ccccc12)NC(=O)[C@H](CCC(N)=O)NC(=O)[C@@H](NC(=O)[C@H](CC(C)C)NC(=O)[C@H](CC(C)C)NC(=O)[C@@H](N)Cc1ccccc1)[C@@H](C)CC)C(=O)N[C@@H](Cc1ccc(O)cc1)C(=O)NCC(=O)N[C@@H](Cc1ccccc1)C(=O)N[C@@H](CO)C(=O)N[C@@H](CC(C)C)C(=O)N[C@@H](CO)C(=O)N[C@@H](C)C(=O)N[C@H](C(=O)N[C@@H](Cc1ccc(O)cc1)C(=O)N[C@H](C(=O)N[C@@H](CS)C(=O)O)[C@@H](C)O)C(C)C", "note": "[EL2a, FLLIQ WYIYG FSLSA VYTC] (H-FLLIQWYIYGFSLSAVYTC-OH; N-terminus and C-terminus assumed)", "values": [
      {"measurement": "solubility in miliQ H2O", "setting": "Solubility in miliQ H2O", "result": "soluble in miliQ H2O except for the EL2a sequence"}
    ]},
    {"molecule": "SRPTEKT [mod-3]", "values": [
      {"measurement": "LY dye transfer, % of the untreated control", "setting": "[1]; 2-hour exposure, untreated control 100±4.5%", "result": "77.6±4.8", "unit": "%"},
      {"measurement": "LY dye transfer, comparison in words", "setting": "[1]", "result": "comparable to the native Peptide5"},
      {"measurement": "ATP release compared to injury control (in words)", "setting": "[2]; hCMVEC, 100 μM, FIG. 4", "result": "not significantly different to the injury control"},
      {"measurement": "ATP release compared to native Peptide5 (in words)", "setting": "[2]; hCMVEC, 100 μM, FIG. 4", "result": "significantly greater ATP release"}
    ]},
    {"molecule": "[Cl][La]([Cl])[Cl]", "note": "[LaCl3, Lanthanum chloride, reference compound]", "values": [
      {"measurement": "Connexin43 labelling per cell compared to untreated control (in words)", "setting": "[3]", "result": "not significantly different to the control"},
      {"measurement": "ATP release, % of the injury control", "setting": "[2]", "result": "47.8±13.6", "unit": "%"},
      {"measurement": "ATP release compared to injury control (in words)", "setting": "[2]; hCMVEC, 100 μM, FIG. 3", "result": "significantly reduced ATP release"}
    ]},
    {"molecule": "RFKPSLCTTDEV [scrambled peptide]", "values": [
      {"measurement": "LY dye transfer, comparison in words", "setting": "[1]", "result": "no significant difference"}
    ]}
  ]
}
